The target in the test is APOBEC3G (human), Q9HC16. Description: SEC. To be noted: remark: other sources report otherwise.

Among the data in publication PMC5714209 are stoichiometry N values, retold here.

A word on the stoichiometry N: it is a count of units in the complex or per binding partner.

B1: APOBEC3G, Q9HC16 1-384 (enzyme)
chain: MKPHFRNTVERMYRDTFSYNFYNRPILSRRNTVWLCYEVKTKGPSRPPLDAKIFRGQVYSELKYHPEMRFFHWFSKWRKLHRDQEYEVTWYISWSPCTKCTRDMATFLAEDPKVTLTIFVARLYYFWDPDYQEALRSLCQKRDGPRATMKIMNYDEFQHCWSKFVYSQRELFEPWNNLPKYYILLHIMLGEILRHSMDPPTFTFNFNNEPWVRGRHETYLCYEVERMHNDTWVLLNQRRGFLCNQAPHKHGFLEGRHAELCFLDVIPFWKLDLDQDYRVTCFTSWSPCFSCAQEMAKFISKNKHVSLCIFTARIYDDQGRCQEGLRTLAEAGAKISIMTYSEFKHCWDTFVDHQGCPFQPWDGLDEHSQDLSGRLRAILQNQEN
B1 yielded a stoichiometry N of 2.
